Measured values as given in article PMC7859239.

How the values were obtained:
[1] = molecular target: Schizosaccharomyces pombe RNA polymerase I (Schizosaccharomyces pombe (endogenous in S. pombe)) (UniProt P15398); assay: negative-stain EM with 2D classification; peak fraction of the analytical SEC in low-salt buffer S300 (300 mM KAc); uranyl formate; 24,462 particles classified into 16 classes
[2] = molecular target: Schizosaccharomyces pombe RNA polymerase I (Schizosaccharomyces pombe (endogenous in S. pombe)) (UniProt P15398); assay: negative-stain EM with 2D classification; peak fraction of the analytical SEC in high-salt buffer S1500 (1.5 M KAc); uranyl formate; 20,054 particles classified into 16 classes
[3] = molecular target: Schizosaccharomyces pombe RNA polymerase I (Schizosaccharomyces pombe (endogenous in S. pombe)) (UniProt P15398); assay: cryo-EM structure; dimer particles in the 'monomer' dataset of BS3-crosslinked Sp Pol I after SEC (5 mM HEPES pH 7.8, 1 mM MgCl2, 10 µM ZnCl2, 150 mM KCl, 5 mM DTT); C2 symmetry imposed; 4.5 Å; model by placing two monomers and rigid body fitting of subdomains

## Schizosaccharomyces pombe RNA polymerase I, P15398 1-1689; Q9P7X8 1-1174; O94616 1-348; Q09177 1-125; O43036 1-173; Q9P7P1 1-147; O94703 1-119; Q09191 1-210; P36595 1-142; Q92399 1-125; O13877 1-71; P48011 1-63; O14086 1-425; Q9USZ4 1-251
[1]
  percent of particles in a dimeric state: < 2%
[2]
  percent of Pol I molecules in a dimeric state: 49%
  percent of identified particles in a dimeric state: 32%
[3]
  stoichiometry N: 2
